Where a chain is given by its changes, count along the chain named. Names may count otherwise.
B1: human Pannexin3 (PANX3), full length (natural protein)
chain: MSLAHTAAEYMLSDALLPDRRGPRLKGLRLELPLDRIVKFVAVGSPLLLMSLAFAQEFSSGSPISCFSPSNFSIRQAAYVDSSCWDSLLHHKQDGPGQDKMKSLWPHKALPYSLLALALLMYLPVLLWQYAAVPALSSDLLFIISELDKSYNRSIRLVQHMLKIRQKSSDPYVFWNELEKARKERYFEFPLLERYLACKQRSHSLVATYLLRNSLLLIFTSATYLYLGHFHLDVFFQEEFSCSIKTGLLSDETHVPNLITCRLTSLSIFQIVSLSSVAIYTILVPVIIYNLTRLCRWDKRLLSVYEMLPAFDLLSRKMLGCPINDLNVILLFLRANISELISFSWLSVLCVLKDTTTQKHNIDTVVDFMTLLAGLEPSKPKHLTNSACDEHP
modifications: N-acetylglucosamine (NAG) at N71; disulfide bonds C66-C261 and C84-C242
B2: human Pannexin1 wild type (PANX1WT), full length (natural protein)
chain: MAIAQLATEYVFSDFLLKEPTEPKFKGLRLELAVDKMVTCIAVGLPLLLISLAFAQEISIGTQISCFSPSSFSWRQAAFVDSYCWAAVQQKNSLQSESGNLPLWLHKFFPYILLLFAILLYLPPLFWRFAAAPHICSDLKFIMEELDKVYNRAIKAAKSARDLDMRDGACSVPGVTENLGQSLWEVSESHFKYPIVEQYLKTKKNSNNLIIKYISCRLLTLIIILLACIYLGYYFSLSSLSDEFVCSIKSGILRNDSTVPDQFQCKLIAVGIFQLLSVINLVVYVLLAPVVVYTLFVPFRQKTDVLKVYEILPTFDVLHFKSEGYNDLSLYNLFLEENISEVKSYKCLKVLENIKSSGQGIDPMLLLTNLGMIKMDVVDGKTPMSAEMREEQGNQTAELQGMNIDSETKANNGEKNARQRLLDSSC
B3: human Pannexin1 congenital mutant R217H (PANX1_(R217H)) (natural protein)
chain: B2 chain with R217H
B4: human Pannexin1 double mutant W74R/R75D (PANX1DM) (natural protein)
chain: B2 chain with W74R, R75D

Biological target: the molecule itself
Assay: cryo-EM structure

Protein | stoichiometry N | binding result
B1 | 7 | –
B2 | – | binds
B3 | – | binds
B4 | – | binds

— article doi:10.1101/2022.09.09.507385 (bioRxiv, 2022)
